{"source": "paper PMC8930769", "biological_target": "native human uromodulin (UMOD), full-length, filaments (human) (UniProt P07911)", "test": "cryo-EM structure; purified native UMOD filaments and His-tagged FimHL A27V mixed at a molar ratio of 1:3, 30 min, dialysed against 10 mM Na-HEPES pH 7.0; single-particle cryo-EM, 7.4 Å; FimHL docked into the difference map", "data": [{"substance": "His-tagged FimHL A27V from UPEC strain UTI89 (from UniProt Q1R2J4 22-179) (domain or fragment)", "values": [{"measurement": "stoichiometry N", "result": 1}]}]}
